Results on 6 molecules are retold here after US20260216242A1, “ALPP-SPECIFIC VARIANT ANTIGEN BINDING MOLECULES” (ALMAC DISCOVERY LIMITED, priority 2022, published 2026).

B1: D10 A06-hFc (S239/442C T366Y/Y407T), [G4S]3 linker, MC-vc-PAB-MMAE conjugate, #633 (Fc fusion, DAR 4)
chain 1: QVQLVESGGGLVQPGGSLRLSCAASGSIFSVNTMGWYRQAPGKQRDLVAVATSGGTIHYADSVKGRFTISRDNAKNTVYLQMNSLKPEDTAVYYCNLVVPYGMIAGDHDYWGQGTKVTVSSGGGGSGGGGSGGGGSEPKSSDKTHTCPPCPAPELLGGPCVFLFPPKPKDTLMISRTPEVTCVVVDVSHEDPEVKFNWYVDGVEVHNAKTKPREEQYNSTYRVVSVLTVLHQDWLNGKEYKCKVSNKALPAPIEKTISKAKGQPREPQVYTLPPSRDELTKNQVSLYCLVKGFYPSDIAVEWESNGQPENNYKTTPPVLDSDGSFFLYSKLTVDKSRWQQGNVFSCSVMHEALHNHYTQKSLCLSPGK
chain 2: QVHLVESGGGLVQAGGSLRLSCAASGRTFLSMGWFRQAPGKEREFVAAISWTGGSTGYADSVKGRFTISRESDKETMYLQMNSLKPEDTAVYYCAARGDVYYGGDDATRYKYWGQGTQVTVSSGGGGSGGGGSGGGGSEPKSSDKTHTCPPCPAPELLGGPCVFLFPPKPKDTLMISRTPEVTCVVVDVSHEDPEVKFNWYVDGVEVHNAKTKPREEQYNSTYRVVSVLTVLHQDWLNGKEYKCKVSNKALPAPIEKTISKAKGQPREPQVYTLPPSRDELTKNQVSLTCLVKGFYPSDIAVEWESNGQPENNYKTTPPVLDSDGSFFLTSKLTVDKSRWQQGNVFSCSVMHEALHNHYTQKSLCLSPGK
modifications: here or on the partner: MC-vc-PAB-MMAE on Cys of S239C and S442C (EU numbering)
B2: A06 E06-hFc (S239/442C T366Y/Y407T), [G4S]3 linker, MC-vc-PAB-MMAE conjugate, #639 (Fc fusion, DAR 4)
chain 1: QVHLVESGGGLVQAGGSLRLSCAASGRTFLSMGWFRQAPGKEREFVAAISWTGGSTGYADSVKGRFTISRESDKETMYLQMNSLKPEDTAVYYCAARGDVYYGGDDATRYKYWGQGTQVTVSSGGGGSGGGGSGGGGSEPKSSDKTHTCPPCPAPELLGGPCVFLFPPKPKDTLMISRTPEVTCVVVDVSHEDPEVKFNWYVDGVEVHNAKTKPREEQYNSTYRVVSVLTVLHQDWLNGKEYKCKVSNKALPAPIEKTISKAKGQPREPQVYTLPPSRDELTKNQVSLYCLVKGFYPSDIAVEWESNGQPENNYKTTPPVLDSDGSFFLYSKLTVDKSRWQQGNVFSCSVMHEALHNHYTQKSLCLSPGK
chain 2: QVHLVESGGGLVQAGGSLRLSCAASRRSFSEYAMGWFRQAPGKEREFVAAIGWSGVIEYADSVKGRFTISRDNAKDTVYLQMNSLKPEDTAVYYCAAGLGIRVVSQTPAYWGQGTQVTVSSGGGGSGGGGSGGGGSEPKSSDKTHTCPPCPAPELLGGPCVFLFPPKPKDTLMISRTPEVTCVVVDVSHEDPEVKFNWYVDGVEVHNAKTKPREEQYNSTYRVVSVLTVLHQDWLNGKEYKCKVSNKALPAPIEKTISKAKGQPREPQVYTLPPSRDELTKNQVSLTCLVKGFYPSDIAVEWESNGQPENNYKTTPPVLDSDGSFFLTSKLTVDKSRWQQGNVFSCSVMHEALHNHYTQKSLCLSPGK
modifications: here or on the partner: MC-vc-PAB-MMAE on Cys of S239C and S442C (EU numbering)
B3: D10 F05-hFc (S239/442C T366Y/Y407T), [G4S]3 linker, MC-vc-PAB-MMAE conjugate, #637 (Fc fusion, DAR 4)
chain 1: QVQLVESGGGLVQPGGSLRLSCAASGSIFSVNTMGWYRQAPGKQRDLVAVATSGGTIHYADSVKGRFTISRDNAKNTVYLQMNSLKPEDTAVYYCNLVVPYGMIAGDHDYWGQGTKVTVSSGGGGSGGGGSGGGGSEPKSSDKTHTCPPCPAPELLGGPCVFLFPPKPKDTLMISRTPEVTCVVVDVSHEDPEVKFNWYVDGVEVHNAKTKPREEQYNSTYRVVSVLTVLHQDWLNGKEYKCKVSNKALPAPIEKTISKAKGQPREPQVYTLPPSRDELTKNQVSLYCLVKGFYPSDIAVEWESNGQPENNYKTTPPVLDSDGSFFLYSKLTVDKSRWQQGNVFSCSVMHEALHNHYTQKSLCLSPGK
chain 2: QVQLVESGGGLVQAGGSLRLSCAASGRAFGDYNIGWFRQAPGKEREFVARRTWDGSSTRYDDSVKGRFTVSIDNAKNTAYLQMNSLKTEDTAVYYCAAGRYSRVRGWEYDYWGQGTQVTVSSGGGGSGGGGSGGGGSEPKSSDKTHTCPPCPAPELLGGPCVFLFPPKPKDTLMISRTPEVTCVVVDVSHEDPEVKFNWYVDGVEVHNAKTKPREEQYNSTYRVVSVLTVLHQDWLNGKEYKCKVSNKALPAPIEKTISKAKGQPREPQVYTLPPSRDELTKNQVSLTCLVKGFYPSDIAVEWESNGQPENNYKTTPPVLDSDGSFFLTSKLTVDKSRWQQGNVFSCSVMHEALHNHYTQKSLCLSPGK
modifications: here or on the partner: MC-vc-PAB-MMAE on Cys of S239C and S442C (EU numbering)
B4: D10 E06-hFc (S239/442C T366Y/Y407T), [G4S]3 linker, MC-vc-PAB-MMAE conjugate, #634 (Fc fusion, DAR 4)
chain 1: QVQLVESGGGLVQPGGSLRLSCAASGSIFSVNTMGWYRQAPGKQRDLVAVATSGGTIHYADSVKGRFTISRDNAKNTVYLQMNSLKPEDTAVYYCNLVVPYGMIAGDHDYWGQGTKVTVSSGGGGSGGGGSGGGGSEPKSSDKTHTCPPCPAPELLGGPCVFLFPPKPKDTLMISRTPEVTCVVVDVSHEDPEVKFNWYVDGVEVHNAKTKPREEQYNSTYRVVSVLTVLHQDWLNGKEYKCKVSNKALPAPIEKTISKAKGQPREPQVYTLPPSRDELTKNQVSLYCLVKGFYPSDIAVEWESNGQPENNYKTTPPVLDSDGSFFLYSKLTVDKSRWQQGNVFSCSVMHEALHNHYTQKSLCLSPGK
chain 2: QVHLVESGGGLVQAGGSLRLSCAASRRSFSEYAMGWFRQAPGKEREFVAAIGWSGVIEYADSVKGRFTISRDNAKDTVYLQMNSLKPEDTAVYYCAAGLGIRVVSQTPAYWGQGTQVTVSSGGGGSGGGGSGGGGSEPKSSDKTHTCPPCPAPELLGGPCVFLFPPKPKDTLMISRTPEVTCVVVDVSHEDPEVKFNWYVDGVEVHNAKTKPREEQYNSTYRVVSVLTVLHQDWLNGKEYKCKVSNKALPAPIEKTISKAKGQPREPQVYTLPPSRDELTKNQVSLTCLVKGFYPSDIAVEWESNGQPENNYKTTPPVLDSDGSFFLTSKLTVDKSRWQQGNVFSCSVMHEALHNHYTQKSLCLSPGK
modifications: here or on the partner: MC-vc-PAB-MMAE on Cys of S239C and S442C (EU numbering)
B5: D10 E10-hFc (S239/442C T366Y/Y407T), [G4S]3 linker, MC-vc-PAB-MMAE conjugate, #636 (Fc fusion, DAR 4)
chain 1: QVQLVESGGGLVQPGGSLRLSCAASGSIFSVNTMGWYRQAPGKQRDLVAVATSGGTIHYADSVKGRFTISRDNAKNTVYLQMNSLKPEDTAVYYCNLVVPYGMIAGDHDYWGQGTKVTVSSGGGGSGGGGSGGGGSEPKSSDKTHTCPPCPAPELLGGPCVFLFPPKPKDTLMISRTPEVTCVVVDVSHEDPEVKFNWYVDGVEVHNAKTKPREEQYNSTYRVVSVLTVLHQDWLNGKEYKCKVSNKALPAPIEKTISKAKGQPREPQVYTLPPSRDELTKNQVSLYCLVKGFYPSDIAVEWESNGQPENNYKTTPPVLDSDGSFFLYSKLTVDKSRWQQGNVFSCSVMHEALHNHYTQKSLCLSPGK
chain 2: QVQLVESGGGLVQAGGSLRLSCAVSGRALSDYNIGWFRQAPGKEREFVARKTWDGSSTRYDDSVKGRFTVSIEDAKNTAYLQMSSLKTEDTAVYYCAAGRYSRARGWEYDYWGQGTQVTVSSGGGGSGGGGSGGGGSEPKSSDKTHTCPPCPAPELLGGPCVFLFPPKPKDTLMISRTPEVTCVVVDVSHEDPEVKFNWYVDGVEVHNAKTKPREEQYNSTYRVVSVLTVLHQDWLNGKEYKCKVSNKALPAPIEKTISKAKGQPREPQVYTLPPSRDELTKNQVSLTCLVKGFYPSDIAVEWESNGQPENNYKTTPPVLDSDGSFFLTSKLTVDKSRWQQGNVFSCSVMHEALHNHYTQKSLCLSPGK
modifications: here or on the partner: MC-vc-PAB-MMAE on Cys of S239C and S442C (EU numbering)
B6: A06 E10-hFc (S239/442C T366Y/Y407T), [G4S]3 linker, MC-vc-PAB-MMAE conjugate, #664 (Fc fusion, DAR 4)
chain 1: QVHLVESGGGLVQAGGSLRLSCAASGRTFLSMGWFRQAPGKEREFVAAISWTGGSTGYADSVKGRFTISRESDKETMYLQMNSLKPEDTAVYYCAARGDVYYGGDDATRYKYWGQGTQVTVSSGGGGSGGGGSGGGGSEPKSSDKTHTCPPCPAPELLGGPCVFLFPPKPKDTLMISRTPEVTCVVVDVSHEDPEVKFNWYVDGVEVHNAKTKPREEQYNSTYRVVSVLTVLHQDWLNGKEYKCKVSNKALPAPIEKTISKAKGQPREPQVYTLPPSRDELTKNQVSLYCLVKGFYPSDIAVEWESNGQPENNYKTTPPVLDSDGSFFLYSKLTVDKSRWQQGNVFSCSVMHEALHNHYTQKSLCLSPGK
chain 2: QVQLVESGGGLVQAGGSLRLSCAVSGRALSDYNIGWFRQAPGKEREFVARKTWDGSSTRYDDSVKGRFTVSIEDAKNTAYLQMSSLKTEDTAVYYCAAGRYSRARGWEYDYWGQGTQVTVSSGGGGSGGGGSGGGGSEPKSSDKTHTCPPCPAPELLGGPCVFLFPPKPKDTLMISRTPEVTCVVVDVSHEDPEVKFNWYVDGVEVHNAKTKPREEQYNSTYRVVSVLTVLHQDWLNGKEYKCKVSNKALPAPIEKTISKAKGQPREPQVYTLPPSRDELTKNQVSLTCLVKGFYPSDIAVEWESNGQPENNYKTTPPVLDSDGSFFLTSKLTVDKSRWQQGNVFSCSVMHEALHNHYTQKSLCLSPGK
modifications: here or on the partner: MC-vc-PAB-MMAE on Cys of S239C and S442C (EU numbering)

For this experiment, the target named is ALPP/ALPPL2 on ALPP/ALPPL2 positive cancer cells (MKN1, NCI-H1651, NCI-N87, Caov-3, HPAC). The experiment can be described thus: cell-based or functional assay.
A word on the IC50: it is the concentration that gives 50% inhibition. The molecule B1 came in with a % viability remaining at 96 h, MKN1 cells of 27.9%; a % viability remaining at 96 h, NCI-H1651 cells of 25.4%; a % viability remaining at 96 h, NCI-N87 cells of 27.3%; an IC50 at 96 h, cell-killing of MKN1 cells of 1.4 nM. Moreover, the IC50 at 96 h, cell-killing of NCI-H1651 cells is 5.4 nM and the IC50 at 96 h, cell-killing of NCI-N87 cells stood at 4.9 nM.
In turn, B2 registered a % viability remaining at 96 h, MKN1 cells of 30.6%; a % viability remaining at 96 h, NCI-H1651 cells of 28%; a % viability remaining at 96 h, NCI-N87 cells of 27.8%; an IC50 at 96 h, cell-killing of MKN1 cells of 2.3 nM. Moreover, the IC50 at 96 h, cell-killing of NCI-H1651 cells stood at 0.9 nM and the half-maximal inhibitory concentration (IC50) at 96 h, cell-killing of NCI-N87 cells is 12.9 nM.
The molecule B3 returned a % viability remaining at 96 h, MKN1 cells of 28.1%; a % viability remaining at 96 h, NCI-H1651 cells of 28%; a % viability remaining at 96 h, NCI-N87 cells of 28.9%; an IC50 at 96 h, cell-killing of MKN1 cells of 1.3 nM. For the same molecule, the IC50 at 96 h, cell-killing of NCI-H1651 cells amounted to 1.2 nM and the IC50 at 96 h, cell-killing of NCI-N87 cells was 5.1 nM.
As for B4, the % viability remaining at 96 h, MKN1 cells was determined as 31.1%; the % viability remaining at 96 h, NCI-H1651 cells was found to be 28.5%; the % viability remaining at 96 h, NCI-N87 cells amounted to 27.6%; the IC50 at 96 h, cell-killing of MKN1 cells came out at 2.6 nM. Besides, the IC50 at 96 h, cell-killing of NCI-H1651 cells was found to be 1.1 nM and the IC50 at 96 h, cell-killing of NCI-N87 cells came to 2.4 nM.
On to B5, for which the % viability remaining at 96 h, MKN1 cells was found to be 30%; the % viability remaining at 96 h, NCI-H1651 cells was 28.9%; the % viability remaining at 96 h, NCI-N87 cells worked out at 26.2%; the IC50 at 96 h, cell-killing of MKN1 cells was 1.9 nM. The molecule further came in with an IC50 at 96 h, cell-killing of NCI-H1651 cells of 0.9 nM and an IC50 at 96 h, cell-killing of NCI-N87 cells of 2.1 nM.
B6 showed a % viability remaining at 96 h, MKN1 cells of 29.7%; a % viability remaining at 96 h, NCI-H1651 cells of 27.2%; a % viability remaining at 96 h, NCI-N87 cells of 28.7%; an IC50 at 96 h, cell-killing of MKN1 cells of 0.9 nM. The molecule further returned an IC50 at 96 h, cell-killing of NCI-H1651 cells of 0.6 nM and an IC50 at 96 h, cell-killing of NCI-N87 cells of 4.7 nM.
